From patent publication US20170307628A1

Target: recombinant human IL-17A (human) (UniProt Q16552)
Assay: cell-based or functional assay

recombinant human IL-17A (human), sequence (Q16552 20-155 limits assumed): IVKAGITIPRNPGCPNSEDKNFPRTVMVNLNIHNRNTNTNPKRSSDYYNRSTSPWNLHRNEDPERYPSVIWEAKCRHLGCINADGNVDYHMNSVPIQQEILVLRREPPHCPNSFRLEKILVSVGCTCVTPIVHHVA

inhibition of IL-17A induced IL-6 production in NHDF cells, IC50: 1 nM
Substance: human IL-17A receptor-Fc chimera (from UniProt Q96F46 33-320) (Fc fusion)
